Tests used:
Conditions in all cases: both partners purified
[1] = biological target: T1, Drosophila melanogaster histone H3-H4 complex, full-length (Drosophila melanogaster, UniProt P02299 1-136; P84040 1-103); assay: NMR titration; 20 μM [U-2H/13C/15N]H3-H4 incubated with 0, 10 or 20 μM APLF 459–474 peptide in 25 mM NaPi pH 7.0, 300 mM NaCl, then exchanged to 50 mM acetate pH 5; TROSY at 900 MHz, 308 K
T1 construct: histone H3, Drosophila melanogaster, full-length; histone H4, Drosophila melanogaster, full-length; Eluted as a histone tetramer in SEC; H3 was 2H/13C/15N-labelled for NMR on H3-H4; also called (H3-H4)2; histone tetramer; copies: 2 + 2

[2] = biological target: T2, stoichiometric mixture of full-length Drosophila melanogaster H2A-H2B and H3-H4 (octamer-mix) (Drosophila melanogaster, UniProt P84051 1-124; P02283 1-123; P02299 1-136; P84040 1-103); assay: native MS; octamer-mix and APLF^AD mixed at 1:0.25 to 1:3 octamer equivalent to APLF^AD, exchanged into 300 mM ammonium acetate pH 7.5; Exactive Plus EMR
T2 construct: histone H2A, Drosophila melanogaster, full-length; histone H2B, Drosophila melanogaster, full-length; histone H3, Drosophila melanogaster, full-length; histone H4, Drosophila melanogaster, full-length; At 300 mM NaCl without APLF^AD this is a mixture of H2A-H2B dimers and H3-H4 tetramers, not a preformed octamer; also called stoichiometric core-histone mix; histone octamer; copies: 2 + 2 + 2 + 2

[3] = biological target: T2, stoichiometric mixture of full-length …; assay: ITC; 5 μM octamer-mix in the cell titrated with 90 μM APLF^AD in the syringe; 25 mM NaPi pH 7.0, 300 mM NaCl, 25°C; one set of sites model

Row | Binder | binding result [3] | other results
1 | Ac-PNEYDLNDSFLDDEEE-NH2 (human APLF residues 459-474; source: synthetic peptide, bought: Biomatik) [peptide corresponding to APLF^459–474] |  | binding result [1]: binds
2 | acidic domain of Homo sapiens APLF (APLF^AD, residues 450 to 511), wild type (domain or fragment, acidic domain of human APLF (aprataxin and polynucleotide kinase-like factor), residues 450 to 511; 15N- or 2H/13C/15N-labelled for NMR; Intrinsically disordered; also called APLF^AD WT; WT; source: E. coli BL21 Rosetta2 (DE3), purified (HisTrap, TEV cleavage, anion exchange, second HisTrap)) DEDNDNVGQPNEYDLNDSFLDDEEEDYEPTDEDSDWEPGKEDEEKEDVEELLKEAKRFMKRK |  | stoichiometry N [2]: 2 APLF^AD per histone octamer equivalent

Further lines, with some results ahead:

Row | binding result [3] | Binder | other results
3 | binds | APLF^AD double anchor mutant Y462A/F468A (DA-34) (domain or fragment, acidic domain of human APLF, residues 450 to 511; source: E. coli BL21 Rosetta2 (DE3), purified) DEDNDNVGQPNEADLNDSALDDEEEDYEPTDEDSDWEPGKEDEEKEDVEELLKEAKRFMKRK | 
4 | binds | SUMO-APLF^AD quadruple anchor mutant Y462A/F468A/Y476A/W485A (QA) (domain or fragment, acidic domain of human APLF, residues 450 to 511; also called APLF^AD QA; source: E. coli BL21 Rosetta2 (DE3), purified; not shown: His tag, N-terminal, cleaved; SUMO, N-terminal, kept) DEDNDNVGQPNEADLNDSALDDEEEDAEPTDEDSDAEPGKEDEEKEDVEELLKEAKRFMKRK | 
5 | binds | LDEDNDNVGQPNEADLNDSALDDEEEDAEPTDEDSDAEPGKE (domain or fragment, human APLF residues 449 to 490; source: E. coli BL21 Rosetta2 (DE3), purified; not shown: His tag, N-terminal, cleaved; SUMO, N-terminal, kept) [SUMO-APLF^AD truncated QA mutant (QA-Δ, residues 449 to 490)] | 
6 | binds | GLDEDNDNVGQPNEYDLNDSFLDDEEEDYEPTDEDSDWEPGKE (domain or fragment, N-terminal Gly as leftover from TEV cleavage site; human APLF residues 449 to 490; Used for crystallisation with tailless Xl. histones and in ITC with the Dm. octamer-mix; source: E. coli BL21 Rosetta2 (DE3), purified) [truncated APLF^AD construct corresponding to residues 449 to 490 (APLF^AD-Δ)] | 
